Results taken from the supplement of paper PMC11246515.
± gives the standard deviation of the averaged measurements.

Assay: total protein half-life in vivo (active degradation + dilution); higher = more stable protein
[1] = E. coli NCM3722 delta-clpP delta-lon delta-hslV, growth: N-lim chemostat, doubling time 6 h
[2] = E. coli NCM3722 delta-hslV, growth: N-lim chemostat, doubling time 6 h
[3] = wild type E. coli NCM3722, growth: N-lim chemostat, doubling time 6 h
[4] = E. coli NCM3722 delta-lon, growth: N-lim chemostat, doubling time 6 h
[5] = E. coli NCM3722 delta-smpB, growth: N-lim chemostat, doubling time 6 h
[6] = wild type E. coli NCM3722, growth: C-lim chemostat, doubling time 3 h
[7] = wild type E. coli NCM3722, growth: C-lim chemostat, doubling time 6 h
[8] = wild type E. coli NCM3722, growth: C-lim chemostat, doubling time 12 h
[9] = wild type E. coli NCM3722, growth: N-lim chemostat, doubling time 12 h
[10] = wild type E. coli NCM3722, growth: P-lim chemostat, doubling time 6 h
[11] = wild type E. coli NCM3722, growth: P-lim chemostat, doubling time 12 h
[12] = E. coli NCM3722 delta-clpP, growth: N-lim chemostat, doubling time 6 h

MNVNSSSNRGEAILAALKTQFPGAVLDEERQTPEQVTITVKINLLPDVVQYLYYQHDGWLPVLFGNDERTLNGHYAVYYALSMEGAEKCWIVVKALVDADSREFPSVTPRVPAAVWGEREIRDMYGLIPVGLPDQRRLVLPDDWPEDMHPLRKDAMDYRLRPEPTTDSETYPFINEGNSDARVIPVGPLHITSDEPGHFRLFVDGEQIVDADYRLFYVHRGMEKLAETRMGYNEVTFLSDRVCGICGFAHSVAYTNSVENALGIEVPQRAHTIRSILLEVERLHSHLLNLGLSCHFVGFDTGFMQFFRVREKSMTMAELLIGSRKTYGLNLIGGVRRDILKEQRLQTLKLVREMRADVSELVEMLLATPNMEQRTQGIGILDRQIARDLRFDHPYADYGNIPKTLFTFTGGDVFSRVMVRVKETFDSLAMLEFALDNMPDTPLLTEGFSYKPHAFALGFVEAPRGEDVHWSMLGDNQKLFRWRCRAATYANWPVLRYMLRGNTVSDAPLIIGSLDPCYSCTDRVTLVDVRKRQSKTVPYKEIERYGIDRNRSPLK
total protein half-life in vivo [1]: 7.09 h
total protein half-life in vivo [2]: 5.63 h
total protein half-life in vivo [3]: 5.27 h

MNYELLTTENAPVKMWTKGVPVEADARQQLINTAKMPFIFKHIAVMPDVHLGKGSTIGSVIPTKGAIIPAAVGVDIGCGMNALRTALTAEDLPENLAELRQAIETAVPHGRTTGRCKRDKGAWENPPVNVDAKWAELEAGYQWLTQKYPRFLNTNNYKHLGTLGTGNHFIEICLDESDQVWIMLHSGSRGIGNAIGTYFIDLAQKEMQETLETLPSRDLAYFMEGTEYFDDYLKAVAWAQLFASLNRDAMMENVVTALQSITQKTVRQPQTLAMEEINCHHNYVQKEQHFGEEIYVTRKGAVSARAGQYGIIPGSMGAKSFIVRGLGNEESFCSCSHGAGRVMSRTKAKKLFSVEDQIRATAHVECRKDAEVIDEIPMAYKDIDAVMAAQSDLVEVIYTLRQVVCVKG
total protein half-life in vivo [1]: 5.37 ± 0.74 h
total protein half-life in vivo [2]: 1.46 ± 0.41 h
total protein half-life in vivo [4]: 2.04 ± 0.29 h
total protein half-life in vivo [5]: 1.46 ± 0.066 h
total protein half-life in vivo [6]: 1.6 ± 0.19 h
total protein half-life in vivo [7]: 2.78 ± 0.54 h
total protein half-life in vivo [8]: 3.19 ± 0.052 h
total protein half-life in vivo [3]: 1.73 h
total protein half-life in vivo [9]: 1.67 ± 0.49 h
total protein half-life in vivo [10]: 1.98 ± 0.61 h
total protein half-life in vivo [11]: 3.92 ± 0.64 h

MNYRIIPVTAFSQNCSLIWCEQTRLAALVDPGGDAEKIKQEVDDSGLTLMQILLTHGHLDHVGAAAELAQHYGVPVFGPEKEDEFWLQGLPAQSRMFGLEECQPLTPDRWLNEGDTISIGNVTLQVLHCPGHTPGHVVFFDDRAKLLISGDVIFKGGVGRSDFPRGDHNQLISSIKDKLLPLGDDVIFIPGHGPLSTLGYERLHNPFLQDEMPVW
total protein half-life in vivo [1]: 4.63 ± 0.21 h
total protein half-life in vivo [12]: 5.7 ± 1.5 h
total protein half-life in vivo [2]: 3.09 ± 0.2 h
total protein half-life in vivo [4]: 4.23 ± 0.31 h
total protein half-life in vivo [5]: 3.17 ± 0.34 h
total protein half-life in vivo [7]: 6.22 ± 1.2 h
total protein half-life in vivo [8]: 9.88 ± 0.89 h
total protein half-life in vivo [3]: 3.73 ± 0.55 h
total protein half-life in vivo [9]: 4.36 ± 0.79 h
total protein half-life in vivo [10]: 5.05 ± 0.39 h
total protein half-life in vivo [11]: 9.46 ± 1.1 h

MNYSHDNWSAILAHIGKPEELDTSARNAGALTRRREIRDAATLLRLGLAYGPGGMSLREVTAWAQLHDVATLSDVALLKRLRNAADWFGILAAQTLAVRAAVTGCTSGKRLRLVDGTAISAPGGGSAEWRLHMGYDPHTCQFTDFELTDSRDAERLDRFAQTADEIRIADRGFGSRPECIRSLAFGEADYIVRVHWRGLRWLTAEGMRFDMMGFLRGLDCGKNGETTVMIGNSGNKKAGAPFPARLIAVSLPPEKALISKTRLLSENRRKGRVVQAETLEAAGHVLLLTSLPEDEYSAEQVADCYRLRWQIELAFKRLKSLLHLDALRAKEPELAKAWIFANLLAAFLIDDIIQPSLDFPPRSAGSEKKN [P0CF93]
total protein half-life in vivo [1]: 5.49 ± 0.06 h
total protein half-life in vivo [12]: 0.94 h
total protein half-life in vivo [2]: 1.34 ± 0.12 h
total protein half-life in vivo [4]: 1.85 ± 0.024 h
total protein half-life in vivo [5]: 0.81 h
total protein half-life in vivo [6]: 0.861 ± 0.23 h
total protein half-life in vivo [7]: 1.69 ± 0.64 h
total protein half-life in vivo [8]: 2.64 ± 0.44 h
total protein half-life in vivo [3]: 1.62 ± 0.41 h
total protein half-life in vivo [9]: 2.3 ± 0.26 h
total protein half-life in vivo [10]: 0.485 h
total protein half-life in vivo [11]: 11.9 h

MNYSLKQLKVFVTVAQEKSFSRAGERIGLSQSAVSHSVKELENHTGVRLLDRTTREVVLTDAGQQLALRLERLLDELNSTLRDTGRMGQQLSGKVRVAASQTISAHLIPQCIAESHRRYPDIQFVLHDRPQQWVMESIRQGDVDFGIVIDPGPVGDLQCEAILSEPFFLLCHRDSALAVEDYVPWQALQGAKLVLQDYASGSRPLIDAALARNGIQANIVQEIGHPATLFPMVAAGIGISILPALALPLPEGSPLVVKRITPVVERQLMLVRRKNRSLSTAAEALWDVVRDQGNALMAGREGDPLYQI [P0ACR7]
total protein half-life in vivo [1]: 6.06 ± 0.61 h
total protein half-life in vivo [12]: 4.84 ± 0.076 h
total protein half-life in vivo [2]: 5.19 ± 0.28 h
total protein half-life in vivo [6]: 2.84 h
total protein half-life in vivo [8]: 12.5 ± 1.6 h
total protein half-life in vivo [3]: 4.85 ± 0.15 h
total protein half-life in vivo [9]: 9.2 ± 0.89 h
total protein half-life in vivo [10]: 3.88 h
total protein half-life in vivo [11]: 6.14 ± 1.9 h

MPAENIVEVHHLKKSVGQGEHELSILTGVELVVKRGETIALVGESGSGKSTLLAILAGLDDGSSGEVSLVGQPLHNMDEEARAKLRAKHVGFVFQSFMLIPTLNALENVELPALLRGESSAESRNGAKALLEQLGLGKRLDHLPAQLSGGEQQRVALARAFNGRPDVLFADEPTGNLDRQTGDKIADLLFSLNREHGTTLIMVTHDLQLAARCDRCLRLVNGQLQEEA [P0A9T8]
total protein half-life in vivo [1]: 6.26 h
total protein half-life in vivo [12]: 6.68 h
total protein half-life in vivo [2]: 5.9 h
total protein half-life in vivo [5]: 5.39 ± 0.17 h
total protein half-life in vivo [6]: 3.23 ± 0.07 h
total protein half-life in vivo [7]: 5.51 ± 0.64 h
total protein half-life in vivo [8]: 11.2 ± 1.8 h
total protein half-life in vivo [3]: 7.11 h
total protein half-life in vivo [9]: 11.4 ± 0.56 h
total protein half-life in vivo [10]: 5.46 ± 0.41 h
total protein half-life in vivo [11]: 11.6 h

MPALDLIRPSVTAMRVIASVNADFARELKLPPHIRSLGLISADSDDVTYIAADEATKQAMVEVVYGRSLYAGAAHGPSPTAGEVLIMLGGPNPAEVRAGLDAMIAHIENGAAFQWANDAQDTAFLAHVVSRTGSYLSSTAGITLGDPMAYLVAPPLEATYGIDAALKSADVQLATYVPPPSETNYSAAFLTGSQAACKAACNAFTDAVLEIARNPIQRA
total protein half-life in vivo [1]: 6.04 ± 0.88 h
total protein half-life in vivo [12]: 4.87 h
total protein half-life in vivo [2]: 4.39 ± 0.31 h
total protein half-life in vivo [4]: 4.68 ± 0.094 h
total protein half-life in vivo [5]: 4.69 ± 0.1 h
total protein half-life in vivo [6]: 3.11 ± 0.15 h
total protein half-life in vivo [7]: 5.97 ± 0.72 h
total protein half-life in vivo [8]: 11.95 ± 0.013 h
total protein half-life in vivo [3]: 4.87 ± 0.41 h
total protein half-life in vivo [9]: 7.99 h
total protein half-life in vivo [10]: 6.1512 ± 0.003 h
total protein half-life in vivo [11]: 11.4 ± 0.5 h

MPDAKKQGRSNKAMTFFVCFLAALAGLLFGLDIGVIAGALPFIADEFQITSHTQEWVVSSMMFGAAVGAVGSGWLSFKLGRKKSLMIGAILFVAGSLFSAAAPNVEVLILSRVLLGLAVGVASYTAPLYLSEIAPEKIRGSMISMYQLMITIGILGAYLSDTAFSYTGAWRWMLGVIIIPAILLLIGVFFLPDSPRWFAAKRRFVDAERVLLRLRDTSAEAKRELDEIRESLQVKQSGWALFKENSNFRRAVFLGVLLQVMQQFTGMNVIMYYAPKIFELAGYTNTTEQMWGTVIVGLTNVLATFIAIGLVDRWGRKPTLTLGFLVMAAGMGVLGTMMHIGIHSPSAQYFAIAMLLMFIVGFAMSAGPLIWVLCSEIQPLKGRDFGITCSTATNWIANMIVGATFLTMLNTLGNANTFWVYAALNVLFILLTLWLVPETKHVSLEHIERNLMKGRKLREIGAHD [P0AEP1]
total protein half-life in vivo [12]: 4.26 h
total protein half-life in vivo [2]: 4.28 h
total protein half-life in vivo [5]: 6.91 h
total protein half-life in vivo [6]: 2.58 h
total protein half-life in vivo [7]: 4.51 h
total protein half-life in vivo [10]: 5.628 ± 0.028 h
total protein half-life in vivo [11]: 9.86 h

MPHNPIRVVVGPANYFSHPGSFNHLHDFFTDEQLSRAVWIYGKRAIAAAQTKLPPAFGLPGAKHILFRGHCSESDVQQLAAESGDDRSVVIGVGGGALLDTAKALARRLGLPFVAVPTIAATCAAWTPLSVWYNDAGQALHYEIFDDANFMVLVEPEIILNAPQQYLLAGIGDTLAKWYEAVVLAPQPETLPLTVRLGINNAQAIRDVLLNSSEQALSDQQNQQLTQSFCDVVDAIIAGGGMVGGLGDRFTRVAAAHAVHNGLTVLPQTEKFLHGTKVAYGILVQSALLGQDDVLAQLTGAYQRFHLPTTLAELEVDINNQAEIDKVIAHTLRPVESIHYLPVTLTPDTLRAAFKKVESFKA
total protein half-life in vivo [1]: 4.77 ± 0.33 h
total protein half-life in vivo [12]: 4.6 ± 0.098 h
total protein half-life in vivo [2]: 4.1 ± 0.11 h
total protein half-life in vivo [4]: 4.91 ± 0.17 h
total protein half-life in vivo [5]: 4.21 ± 0.15 h
total protein half-life in vivo [6]: 2.67 ± 0.1 h
total protein half-life in vivo [7]: 5.28 ± 0.084 h
total protein half-life in vivo [8]: 9.15 ± 1.6 h
total protein half-life in vivo [3]: 4.38 h
total protein half-life in vivo [9]: 7.78 h
total protein half-life in vivo [10]: 5.64 ± 0.28 h
total protein half-life in vivo [11]: 11.2 ± 0.17 h
